# Results published in US20210395310A1, “Cyclic Peptide” (The University of Tokyo, priority 2018, published 2021).
# Positions of bridges follow the written chain, without caps; N, C: chain ends. Non-standard residues stand in square brackets, D forms with d. Primed or numbered codes have the meaning given here. No end group written: not given here. PEG11′ = PEG11 linker (11-unit polyethylene glycol spacer); PEG5′ = not defined here; PEG11″ = PEG11 linker; βAla = NCCC(=O)O
# B1: cyclic peptide HiP-9 (peptide)
# peptide: Ac-[dW]CKVSKWSKC
# modifications: thioether (positions not given here); also: thioether to Cys2 or Cys10, not given here
# B2: HiP-8-PEG11-biotin (peptide)
# peptide: {CH2CO}-[dW]PLSKWWYSKRC-{βAla-PEG11′-K(D-biotin)}
# modifications: thioether N-12 (inferred)
# notes: also called immobilized HiP-8-PEG11; HiP-8 (in the staining text)
# B3: cyclic peptide HiP-12 (peptide)
# peptide: {CH2CO}-[dW]KFRISKWYKC
# modifications: thioether N-11 (inferred)
# notes: C-terminal tail after Cys not known (drawing)
# B4: cyclic peptide HiP-10 (peptide)
# peptide: Ac-[dW]RYIKLCKISKWSRC
# modifications: thioether (positions not given here); also: thioether ring-closing Cys not given here (Cys7 or Cys15)
# B5: cyclic peptide HiP-8 (peptide)
# peptide: {CH2CO}-[dW]PLSKWWYSKRC
# modifications: thioether N-12 (inferred)
# notes: a C-terminal tail (X')r or amide after Cys is not known
# B6: cyclic peptide HiP-13 (peptide)
# peptide: {CH2CO}-[dW]IFKISKWYKC
# modifications: thioether N-11 (inferred)
# notes: as for B3
# B7: HiP-8-PEG5 (peptide)
# peptide: {CH2CO}-[dW]PLSKWWYSKRC[PEG5′]
# modifications: thioether N-12; also: further groups not given here
# notes: HiP-8 with a PEG5 tail; also called HiP-8 modified peptide
# How the values were obtained:
# HGF [1] = target: T1, HGF (Homo sapiens, UniProt P14210); experiment: Binding of cyclic peptides to immobilized HGF by SPR (Biacore T200); conditions: immobilized biotinylated HGF, single cycle kinetics; for kon: read-out: Ka (association rate); for koff: read-out: Kd (dissociation rate)
# T1 construct: the full-length human HGF cDNA was cloned into pEHX1.1 plasmid; made in house; host or cells: Chinese hamster ovary (CHO) cells
# Experimental: (§1) Binding of the cyclic peptides to immobilized HGF was measured using surface plasmon resonance (SPR) with Biacore T200 (product of GE Healthcare). Specifically, 2000 resonance units (RU) of biotinylated HGF was immobilized onto a CAP sensor chip by using a biotin capture kit (product of GE Healthcare).
# (§2) Binding of the cyclic peptides was tested by injecting varying concentrations of the cyclic peptides into an HBS EP+buffer (10 mM HEPES (pH 7.4), 150 mM NaCl, 3 mM EDTA, and 0.05% (v/v) Surfactant P20) containing 0.1% DMSO at a flow rate of 30 μl/min. Binding of the cyclic peptides to HGF was analyzed by single cycle kinetics analysis.
# PC-9 cells = experiment: Gefitinib resistance test; type: cell-based, human; set-up: growth of lung cancer cells: dose or concentration left out as unconfirmed
# Experimental: The resistance to gefitinib, an anticancer agent, was tested by seeding human lung cancer cells, PC-9 cells, on a 24-well plate and cultured for 24 hours on a RPMI medium containing 10% fetal bovine serum. The number of living cells was counted after non-addition or addition of gefitinib ([…]), HGF (20 ng/mL), or HiP8-PEG11 (1-1000 nM) and culturing for 72 hours.
# HGF [2] = target: T1, HGF; experiment: MET activation test: inhibition of HGF-induced MET activation in EHMES-1 cells; type: cell-based; conditions: at a concentration of 100 nM or more
# Experimental: EHMES-1 Cells were stimulated for 10 minutes while using a medium with 20 ng/ml ([…]) of an hHGF protein in the presence or absence of a cyclic peptide and washed with phosphate-buffered physiological saline (PBS). Then, 4% paraformaldehyde (PFA) was added in PBS and the resulting mixture was incubated for 30 minutes, followed by further washing three times with PBS. The cells were […] for 30 minutes with 5% goat serum and 0.02% Triton X-100 in PBS and then, incubated at 4° C. for 12 hours in Phospho-Met (Tyr1234/1235) XP rabbit mAb (D26, product of Cell Signaling Technology, Danvers, Commonwealth of Massachusetts), a monoclonal antibody. As the monoclonal antibody, used was that diluted at 1:1000 in a 1% goat serum PBS suspension. The cells were washed three times with PBS and incubated for 1 hour in a liquid obtained by diluting an HRP-conjugated anti-rabbit antibody and a 1% goat serum PBS suspension at 1:1000. […] By using a chemiluminescence method with ImmunoStar (registered trademark) LD reagent (product of Wako Pure Chemicals, Japan), chemiluminescence intensity was measured by ARVO MX (product of Perkin Elmer). Relative MET phosphorylation was calculated as the following: (chemiluminescence unit of sample—chemiluminescence unit of mock control)/(chemiluminescence unit of […]—chemiluminescence unit of mock control). […]
# Target sequence in this assay (P14210 32-489 isoform P14210-3): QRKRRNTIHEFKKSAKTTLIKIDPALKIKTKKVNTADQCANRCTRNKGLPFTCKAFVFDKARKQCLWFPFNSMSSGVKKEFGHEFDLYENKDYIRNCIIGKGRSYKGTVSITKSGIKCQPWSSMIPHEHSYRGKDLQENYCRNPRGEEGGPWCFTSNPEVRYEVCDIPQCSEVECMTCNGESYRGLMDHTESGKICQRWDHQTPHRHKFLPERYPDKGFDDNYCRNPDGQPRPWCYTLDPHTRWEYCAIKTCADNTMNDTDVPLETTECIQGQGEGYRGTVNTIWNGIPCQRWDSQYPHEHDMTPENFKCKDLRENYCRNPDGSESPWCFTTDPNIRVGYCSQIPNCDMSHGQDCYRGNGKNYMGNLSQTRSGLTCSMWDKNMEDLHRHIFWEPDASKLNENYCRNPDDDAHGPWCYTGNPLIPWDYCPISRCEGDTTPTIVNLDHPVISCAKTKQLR
# Target sequence in this assay (P14210 495-728): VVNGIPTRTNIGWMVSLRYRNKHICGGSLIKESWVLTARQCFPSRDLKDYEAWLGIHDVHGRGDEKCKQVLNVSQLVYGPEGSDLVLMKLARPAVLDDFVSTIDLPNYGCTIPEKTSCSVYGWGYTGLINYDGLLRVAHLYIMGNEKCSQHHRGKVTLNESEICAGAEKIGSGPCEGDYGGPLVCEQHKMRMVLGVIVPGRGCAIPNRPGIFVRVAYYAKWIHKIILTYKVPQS
# MET = target: T2, MET (Homo sapiens, UniProt P08581); experiment: MET activation assay using cells: MET activation by HGF in EHMES-1 cells; type: cell-based
# T2 construct: endogenous in cells; host or cells: EHMES-1 cells
# Experimental: In EHMES-1 cells, HGF activated MET at EC50=0.07 nM. The arrow in the graph indicates 0.22 nM HGF used for peptide assessment. […] The EC50 value was determined by using dose-response (variable gradient, 4 parameters) curve fitting of Prism 6.0d and plotting the logarithm of MET activation against an HGF concentration. Data thus obtained are expressed as mean±s.d. of three independent measurement results.
# EHMES-1 Cells were stimulated for 10 minutes while using a medium with 20 ng/ml ([…]) of an hHGF protein in the presence or absence of a cyclic peptide and washed with phosphate-buffered physiological saline (PBS). Then, 4% paraformaldehyde (PFA) was added in PBS and the resulting mixture was incubated for 30 minutes, followed by further washing three times with PBS. […] By using a chemiluminescence method with ImmunoStar (registered trademark) LD reagent (product of Wako Pure Chemicals, Japan), chemiluminescence intensity was measured by ARVO MX (product of Perkin Elmer). Relative MET phosphorylation was calculated as the following: (chemiluminescence unit of sample—chemiluminescence unit of mock control)/(chemiluminescence unit of […]—chemiluminescence unit of mock control).
# [3] = target: human hepatocyte growth factor (HGF), recombinant full-length, active two-chain form (human, UniProt P14210 32-728); experiment: cell-based or functional assay
# fluorescein-HGF [4] = target: T3, fluorescein-HGF (human, UniProt P14210 32-728, labelled with a succinimidyl fluorescein labeling kit (sites not given)); experiment: competition, flow cytometry: peptide varied against the binding of 0.44 nM fluorescein-HGF to MET-Fc beads [lower panel]
# T3 construct: also called fluoresceinated HGF
# Experimental: (§3) Labeling of hHGF with fluorescein was performed using a succinimidyl fluorescein labeling kit (product of Dojindo). On 200 μl (50% v/v) of protein G beads (Spherotech) in Tris-buffered physiological saline (pH 7.5) containing 0.1% BSA and […] of Tween-20, 5 μg of MET-extracellular domain-Fc fusion protein (product of R&D systems) was immobilized. […] The fluorescence intensity of the beads was detected using a flow cytometer (product of FACS Canto II, BD Biosciences).
# (§4) For a competitive test of the cyclic peptide, for each of increased concentrations of the cyclic peptide, 0.44 nM fluorescein-HGF and MET-Fc immobilized beads were mixed, the resulting mixture was incubated at 25° C. for 1 hour, and fluorescence intensity of the beads was measured using a flow cytometer.
# tcHGF(Xa) = target: T4, tcHGF(Xa) (human, UniProt P14210 32-490; P14210 495-728); experiment: SPR, Biacore 3000, HiP8-PEG11-biotin on streptavidin chip, tcHGF(Xa) injected, steady-state affinity
# T4 construct: A C-terminal hexahistidine tag was added and the sample was treated with TEV protease; also called mature HGF (Xa)
# Experimental: A very limited portion of the scHGF(Xa) bound to HiP-8-PEG11. A binding rate was detected by surface plasmon resonance (SPR). RU represents a resonance unit (resonance unit). The upward arrow and the downward arrow mean start and end of HGF input, respectively. Data are expressed as mean±s.d. of typical sensorgrams performed in two iterations by using HGFs having a plurality of concentrations.
# Binding of HGF and HGF fragments to immobilized HiP8-PEG11 was measured by surface plasmon resonance (SPR) with Biacore 3000 (product of Ge Flealthcare). Hip8-PEG11-biotin was supported on the surface of a streptavidin-coated chip at 10 RU (resonance unit). The test was performed by injecting HGF and HGF fragments with varying concentrations into 10 mM TBS (pH 7.4), 150 mM NaCl, and 0.05% Tween 20 (v/v) at a flow rate of 30 μl/min. Binding affinity was analyzed from a fitting model of steady-state affinity by multi-cycle kinetics analysis.
# [5] = target: T5, biotinylated full-length human HGF (human, UniProt P14210 32-728, biotinylated with a succinimidyl biotin labeling kit (sites not given)); experiment: SPR, Biacore T200, biotinylated HGF on CAP chip, peptide injected, single cycle kinetics
# T5 construct: also called biotinylated HGF; biotinylated hHGF
# Experimental: as §1, §2
# fluorescein-HGF [6] = target: T3, fluorescein-HGF; experiment: competition, flow cytometry: HiP-8 varied against the binding of 0.44 nM fluorescein-HGF to MET-Fc beads
# Experimental: as §3, §4
# fluorescein-HGF [7] = target: T3, fluorescein-HGF; experiment: competition, flow cytometry: peptide varied against the binding of 0.44 nM fluorescein-HGF to MET-Fc beads [upper panel]
# Experimental: as §3, §4
# T3 sequence (P14210 other isoform, or with tags, fused parts or gaps limits assumed): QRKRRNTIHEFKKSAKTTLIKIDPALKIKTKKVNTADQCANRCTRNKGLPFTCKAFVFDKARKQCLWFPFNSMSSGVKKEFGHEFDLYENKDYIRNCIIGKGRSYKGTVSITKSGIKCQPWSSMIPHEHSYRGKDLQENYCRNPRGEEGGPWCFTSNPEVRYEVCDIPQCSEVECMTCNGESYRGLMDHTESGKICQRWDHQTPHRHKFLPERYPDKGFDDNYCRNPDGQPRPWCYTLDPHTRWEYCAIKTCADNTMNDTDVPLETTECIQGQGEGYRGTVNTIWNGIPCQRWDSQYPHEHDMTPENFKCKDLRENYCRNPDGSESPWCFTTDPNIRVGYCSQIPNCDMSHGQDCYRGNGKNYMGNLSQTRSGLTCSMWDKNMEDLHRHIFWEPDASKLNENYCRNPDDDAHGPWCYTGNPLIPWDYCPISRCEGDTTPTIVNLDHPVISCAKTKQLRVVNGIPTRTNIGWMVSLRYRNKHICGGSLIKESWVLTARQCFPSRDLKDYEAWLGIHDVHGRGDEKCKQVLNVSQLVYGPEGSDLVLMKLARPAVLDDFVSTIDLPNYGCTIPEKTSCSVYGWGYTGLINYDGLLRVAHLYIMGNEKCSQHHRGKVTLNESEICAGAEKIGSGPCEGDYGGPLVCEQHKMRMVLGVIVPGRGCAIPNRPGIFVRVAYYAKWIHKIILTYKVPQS
# human hepatocyte growth factor (HGF), recombinant full-length, active two-chain form, sequence (P14210 other isoform, or with tags, fused parts or gaps limits assumed): as above
# T5 sequence (P14210 other isoform, or with tags, fused parts or gaps limits assumed): as above
# T2 sequence (P08581 25-1390): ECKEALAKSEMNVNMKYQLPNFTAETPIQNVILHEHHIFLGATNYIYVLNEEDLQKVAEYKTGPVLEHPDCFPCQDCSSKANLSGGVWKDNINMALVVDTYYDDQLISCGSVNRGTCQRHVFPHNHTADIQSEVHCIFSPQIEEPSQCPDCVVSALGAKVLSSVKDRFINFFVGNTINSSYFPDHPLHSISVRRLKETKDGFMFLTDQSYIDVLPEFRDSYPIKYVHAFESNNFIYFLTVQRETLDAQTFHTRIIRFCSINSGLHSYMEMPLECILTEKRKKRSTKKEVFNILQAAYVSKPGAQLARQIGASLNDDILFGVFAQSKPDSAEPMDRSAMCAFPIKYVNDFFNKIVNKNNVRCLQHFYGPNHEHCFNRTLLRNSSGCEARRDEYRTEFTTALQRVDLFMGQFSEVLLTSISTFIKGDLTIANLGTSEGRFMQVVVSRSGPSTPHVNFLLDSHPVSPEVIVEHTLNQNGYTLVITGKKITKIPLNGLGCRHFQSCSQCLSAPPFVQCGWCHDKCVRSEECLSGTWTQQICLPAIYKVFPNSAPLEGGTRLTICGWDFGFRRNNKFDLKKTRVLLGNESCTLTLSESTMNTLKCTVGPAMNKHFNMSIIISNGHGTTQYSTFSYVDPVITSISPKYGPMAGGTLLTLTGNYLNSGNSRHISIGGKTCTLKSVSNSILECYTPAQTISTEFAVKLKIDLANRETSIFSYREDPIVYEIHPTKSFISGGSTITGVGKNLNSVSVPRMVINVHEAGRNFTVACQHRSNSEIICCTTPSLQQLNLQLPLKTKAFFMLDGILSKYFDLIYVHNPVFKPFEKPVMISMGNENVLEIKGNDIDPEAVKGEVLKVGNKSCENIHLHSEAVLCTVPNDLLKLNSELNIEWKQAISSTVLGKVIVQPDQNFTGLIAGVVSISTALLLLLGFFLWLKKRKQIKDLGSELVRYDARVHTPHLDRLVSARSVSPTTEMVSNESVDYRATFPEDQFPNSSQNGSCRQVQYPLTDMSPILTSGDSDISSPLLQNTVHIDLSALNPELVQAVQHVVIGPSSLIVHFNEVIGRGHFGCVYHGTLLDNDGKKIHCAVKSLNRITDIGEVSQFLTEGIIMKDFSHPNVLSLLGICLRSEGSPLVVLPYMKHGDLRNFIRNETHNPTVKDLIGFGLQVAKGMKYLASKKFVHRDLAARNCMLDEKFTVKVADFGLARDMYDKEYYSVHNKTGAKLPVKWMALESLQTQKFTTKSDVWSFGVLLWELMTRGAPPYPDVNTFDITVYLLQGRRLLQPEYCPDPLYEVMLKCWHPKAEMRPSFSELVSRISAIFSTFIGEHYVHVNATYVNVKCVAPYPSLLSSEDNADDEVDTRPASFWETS
# T4 sequence (P14210 other isoform, or with tags, fused parts or gaps limits assumed, chain 1 of 2): as the sequence (P14210 32-489 isoform P14210-3) above, with K455I, Q456E, L457G counted along it
# T4 sequence (P14210 495-728 limits assumed, chain 2 of 2): as the sequence (P14210 495-728) above
molecule,measurement,setting,value
"CC[C@H](C)[C@@H]1NC(=O)[C@H](CCCNC(=N)N)NC(=O)[C@H](Cc2ccccc2)NC(=O)[C@H](CCCCN)NC(=O)[C@@H](Cc2c[nH]c3ccccc23)NC(=O)CSC[C@@H](C(=O)NCC(N)=O)NC(=O)[C@H](CCCCN)NC(=O)[C@H](Cc2ccc(O)cc2)NC(=O)[C@H](Cc2c[nH]c3ccccc23)NC(=O)[C@H](CCCCN)NC(=O)[C@H](CO)NC1=O [HiP-12, KFRISKWYK]",kon,HGF [1],700000 M⁻¹ s⁻¹
same,koff,HGF [1],0.0079 s⁻¹
"CC[C@H](C)[C@@H]1NC(=O)[C@H](CCCCN)NC(=O)[C@H](Cc2ccccc2)NC(=O)[C@H]([C@@H](C)CC)NC(=O)[C@@H](Cc2c[nH]c3ccccc23)NC(=O)CSC[C@@H](C(=O)NCC(N)=O)NC(=O)[C@H](CCCCN)NC(=O)[C@H](Cc2ccc(O)cc2)NC(=O)[C@H](Cc2c[nH]c3ccccc23)NC(=O)[C@H](CCCCN)NC(=O)[C@H](CO)NC1=O [HiP-13, IFKISKWYK]",kon,HGF [1],1.9e+06 M⁻¹ s⁻¹
same,koff,HGF [1],0.004 s⁻¹
"COc1cc2ncnc(Nc3ccc(F)c(Cl)c3)c2cc1OCCCN1CCOCC1 [gefitinib, reference compound]",growth of lung cancer cells,PC-9 cells,strongly inhibits growth of lung cancer cells
"KHKISKWKK ({CH2CO}-[dW]KHKISKWKKC; thioether N-11 (inferred)) [HiP-6, thioether cyclic peptide]",MET inhibitory activity,HGF [2],had MET inhibitory activity
"TRKISKWYK ({CH2CO}-[dW]TRKISKWYKC; thioether N-11 (inferred)) [HiP-1, thioether cyclic peptide]",MET inhibitory activity,HGF [2],had MET inhibitory activity
biotinylated HGF: hHGF biotinylated using a succinimidyl biotin labeling kit,MET activation activity compared with non-labeled HGF,MET,activity equivalent to that of non-labeled HGF
fluorescein HGF: hHGF labeled with fluorescein using a succinimidyl fluorescein labeling kit,MET activation activity compared with non-labeled HGF,MET,activity equivalent to that of non-labeled HGF
{CH2CO}-[dW]QYKVSKVVYKC (thioether N-12 (inferred)) [cyclic peptide HiP-14],"MET inhibitory activity (MET activation inhibition test, EHMES-1 cells)",[3],≥ 100 nM
B1,"MET inhibitory activity (MET activation inhibition test, EHMES-1 cells)",[3],≥ 100 nM
{CH2CO}-[dW]NKKVSKWYKRGC (thioether N-13 (inferred)) [cyclic peptide HiP-16],"MET inhibitory activity (MET activation inhibition test, EHMES-1 cells)",[3],≥ 100 nM
"{CH2CO}-[dW]PLSKWWYSKRC[βAla][PEG11″] (thioether N-12 (inferred), also called HiP-8 modified peptide) [HiP-8-PEG11]",IC50 (read off the curve),fluorescein-HGF [4],~1 nM
B2,Kd,tcHGF(Xa),2.5 nM
B3,Kd,[5],12 nM
same,"MET inhibitory activity (MET activation inhibition test, EHMES-1 cells)",[3],≥ 100 nM
{CH2CO}-[dW]KHKISKWKKC (thioether N-11 (inferred)) [cyclic peptide HiP-6],"MET inhibitory activity (MET activation inhibition test, EHMES-1 cells)",[3],≥ 100 nM
{CH2CO}-[dW]TRKISKWYKC (thioether N-11 (inferred)) [cyclic peptide HiP-1],"MET inhibitory activity (MET activation inhibition test, EHMES-1 cells)",[3],≥ 100 nM
B4,"MET inhibitory activity (MET activation inhibition test, EHMES-1 cells)",[3],≥ 100 nM
B5,Kd,[5],0.4 nM
same,IC50,fluorescein-HGF [6],0.9 nM
same,"MET activation inhibition concentration (IC50), EHMES-1 cells stimulated with hHGF",[3],8 nM
same,IC50 (read off the curve),fluorescein-HGF [4],~1 nM
B6,Kd,[5],2.1 nM
same,"MET inhibitory activity (MET activation inhibition test, EHMES-1 cells)",[3],≥ 100 nM
B7,IC50 (read off the curve),fluorescein-HGF [7],~1 nM
{CH2CO}-[dW]NRGINKYWKC (thioether N-11 (inferred)) [cyclic peptide HiP-15],"MET inhibitory activity (MET activation inhibition test, EHMES-1 cells)",[3],≥ 100 nM
